Sequences and labels used below:
T1: Cdc3p (S. cerevisiae, UniProt P32457 1-520)
T1 sequence: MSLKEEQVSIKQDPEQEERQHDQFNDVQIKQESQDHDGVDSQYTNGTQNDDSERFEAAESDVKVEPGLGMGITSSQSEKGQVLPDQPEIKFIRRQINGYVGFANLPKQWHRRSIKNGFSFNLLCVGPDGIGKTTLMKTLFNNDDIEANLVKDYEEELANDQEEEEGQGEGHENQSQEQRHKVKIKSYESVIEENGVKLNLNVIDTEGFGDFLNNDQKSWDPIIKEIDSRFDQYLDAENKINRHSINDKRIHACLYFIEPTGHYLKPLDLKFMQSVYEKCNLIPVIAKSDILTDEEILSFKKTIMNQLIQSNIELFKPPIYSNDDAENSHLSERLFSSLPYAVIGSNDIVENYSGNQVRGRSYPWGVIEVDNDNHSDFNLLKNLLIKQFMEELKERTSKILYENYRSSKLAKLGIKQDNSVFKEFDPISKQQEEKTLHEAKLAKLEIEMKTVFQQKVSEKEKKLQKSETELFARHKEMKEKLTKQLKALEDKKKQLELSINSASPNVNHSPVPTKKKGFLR

B1: Cdc11p (natural protein)
chain: MSGIIDASSALRKRKHLKRGITFTVMIVGQSGSGRSTFINTLCGQQVVDTSTTILLPTDTSTEIDLQLREETVELEDDEGVKIQLNIIDTPGFGDSLDNSPSFEIISDYIRHQYDEILLEESRVRRNPRFKDGRVHCCLYLINPTGHGLKEIDVEFIRQLGSLVNIIPVISKSDSLTRDELKLNKKLIMEDIDRWNLPIYNFPFDEDEISDEDYETNMYLRTLLPFAIIGSNEVYEMGGDVGTIRGRKYPWGILDVEDSSISDFVILRNALLISHLHDLKNYTHEILYERYRTEALSGESVAAESIRPNLTKLNGSSSSSTTTRRNTNPFKQSNNINNDVLNPASDMHGQSTGENNETYMTREEQIRLEEERLKAFEERVQQELLLKRQELLQREKELREIEARLEKEAKIKQEE
B2: Cdc12p (natural protein)
chain: MSAATATAAPVPPPVGISNLPNQRYKIVNEEGGTFTVMLCGESGLGKTTFINTLFQTVLKRADGQQHRQEPIRKTVEIDITRALLEEKHFELRVNVIDTPGFGDNVNNNKAWQPLVDFIDDQHDSYMRQEQQPYRTKKFDLRVHAVLYFIRPTGHGLKPIDIETMKRLSTRANLIPVIAKADTLTAQELQQFKSRIRQVIEAQEIRIFTPPLDADSKEDAKSGSNPDSAAVEHARQLIEAMPFAIVGSEKKFDNGQGTQVVARKYPWGLVEIENDSHCDFRKLRALLLRTYLLDLISTTQEMHYETYRRLRLEGHENTGEGNEDFTLPAIAPARKLSHNPRYKEEENALKKYFTDQVKAEEQRFRQWEQNIVNERIRLNGDLEEIQGKVKKLEEQVKSLQVKKSHLK
B3: Cdc10p (natural protein)
chain: MDPLSSVQPASYVGFDTITNQIEHRLLKKGFQFNIMVVGQSGLGKSTLINTLFASHLIDSATGDDISALPVTKTTEMKISTHTLVEDRVRLNINVIDTPGFGDFIDNSKAWEPIVKYIKEQHSQYLRKELTAQRERFITDTRVHAILYFLQPNGKELSRLDVEALKRLTEIANVIPVIGKSDTLTLDERTEFRELIQNEFEKYNFKIYPYDSEELTDEELELNRSVRSIIPFAVVGSENEIEINGETFRGRKTRWSAINVEDINQCDFVYLREFLIRTHLQDLIETTSYIHYEGFRARQLIALKENANSRSSAHMSSNAIQR

The experiment has as its target T1, Cdc3p. The experiment is described as follows: SEC + other: sucrose gradient sedimentation.
Broadly, the stoichiometry N is a count of units in the complex or per binding partner. As to B1, the “stoichiometry N” value is ~0.5 Cdc11p per Cdc3p (1:2). The same measure for B2: ~1 Cdc12p per Cdc3p (2:2); for B3: ~1 Cdc10p per Cdc3p (2:2).

The values are drawn from PMC2148147 (The Journal of Cell Biology, 1998).
